In article PMC3769240:

Target: Non-structural NS1 protein of human respiratory syncytial virus (hRSV) strain A (human respiratory syncytial virus strain A) (UniProt P0DOE9)
Experiment: dynamic light scattering; NS1SOs made by heat (10 minutes at 70°C in Tris 10 mM pH 8, DTT 1 mM); measured at 20°C

“Non-structural NS1 protein of human respiratory syncytial virus (hRSV) strain A (from UniProt P0DOE9 1-139) (natural protein)” was tested, and the stoichiometry N (NS1 monomers per molecule of oligomer) was 149.
